Values quoted from earlier work in publication PMC5662687.

Biological target: ICAM-1 (Homo sapiens) (UniProt P05362)
Sequence (P05362 28-480): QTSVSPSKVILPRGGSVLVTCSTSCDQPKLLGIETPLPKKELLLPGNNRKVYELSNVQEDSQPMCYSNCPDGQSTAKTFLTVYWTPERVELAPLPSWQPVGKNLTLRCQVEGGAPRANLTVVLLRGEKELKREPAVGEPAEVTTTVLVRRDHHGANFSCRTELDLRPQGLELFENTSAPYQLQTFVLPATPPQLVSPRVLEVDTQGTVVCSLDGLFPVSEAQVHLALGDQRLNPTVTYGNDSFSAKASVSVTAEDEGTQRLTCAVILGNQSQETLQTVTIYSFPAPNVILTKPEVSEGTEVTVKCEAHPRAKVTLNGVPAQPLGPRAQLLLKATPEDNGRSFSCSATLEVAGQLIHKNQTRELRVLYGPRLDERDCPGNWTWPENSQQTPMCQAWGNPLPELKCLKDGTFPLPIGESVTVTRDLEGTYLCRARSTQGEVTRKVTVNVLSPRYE

Chain of LFA-1 (P20701 26-1090): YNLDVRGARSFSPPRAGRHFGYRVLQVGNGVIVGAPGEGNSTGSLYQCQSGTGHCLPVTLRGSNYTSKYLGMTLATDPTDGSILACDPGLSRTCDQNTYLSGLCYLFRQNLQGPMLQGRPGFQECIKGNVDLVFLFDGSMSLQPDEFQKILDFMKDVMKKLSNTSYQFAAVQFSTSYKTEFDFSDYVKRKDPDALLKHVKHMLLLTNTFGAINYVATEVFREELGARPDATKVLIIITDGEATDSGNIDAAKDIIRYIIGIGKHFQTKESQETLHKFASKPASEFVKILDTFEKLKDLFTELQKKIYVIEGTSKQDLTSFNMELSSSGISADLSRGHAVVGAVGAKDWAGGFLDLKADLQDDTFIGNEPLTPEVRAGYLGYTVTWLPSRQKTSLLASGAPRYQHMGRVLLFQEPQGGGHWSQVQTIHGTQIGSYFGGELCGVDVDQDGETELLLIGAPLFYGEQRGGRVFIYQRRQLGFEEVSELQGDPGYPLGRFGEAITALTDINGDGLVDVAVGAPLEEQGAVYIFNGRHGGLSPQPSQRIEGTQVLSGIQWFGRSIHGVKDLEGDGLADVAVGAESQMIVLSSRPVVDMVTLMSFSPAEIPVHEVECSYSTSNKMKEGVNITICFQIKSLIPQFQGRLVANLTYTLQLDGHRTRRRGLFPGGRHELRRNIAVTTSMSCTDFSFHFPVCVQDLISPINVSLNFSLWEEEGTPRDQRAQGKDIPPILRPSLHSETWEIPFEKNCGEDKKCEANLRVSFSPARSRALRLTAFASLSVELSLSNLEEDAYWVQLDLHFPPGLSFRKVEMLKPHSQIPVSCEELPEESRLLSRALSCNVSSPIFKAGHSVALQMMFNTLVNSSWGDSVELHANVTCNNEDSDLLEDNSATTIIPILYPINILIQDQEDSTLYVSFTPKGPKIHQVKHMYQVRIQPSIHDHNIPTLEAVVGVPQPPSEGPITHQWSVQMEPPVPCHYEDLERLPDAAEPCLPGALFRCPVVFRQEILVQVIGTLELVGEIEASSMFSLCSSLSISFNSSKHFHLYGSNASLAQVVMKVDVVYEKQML
Chain of LFA-1 (P05107 23-700, further chain): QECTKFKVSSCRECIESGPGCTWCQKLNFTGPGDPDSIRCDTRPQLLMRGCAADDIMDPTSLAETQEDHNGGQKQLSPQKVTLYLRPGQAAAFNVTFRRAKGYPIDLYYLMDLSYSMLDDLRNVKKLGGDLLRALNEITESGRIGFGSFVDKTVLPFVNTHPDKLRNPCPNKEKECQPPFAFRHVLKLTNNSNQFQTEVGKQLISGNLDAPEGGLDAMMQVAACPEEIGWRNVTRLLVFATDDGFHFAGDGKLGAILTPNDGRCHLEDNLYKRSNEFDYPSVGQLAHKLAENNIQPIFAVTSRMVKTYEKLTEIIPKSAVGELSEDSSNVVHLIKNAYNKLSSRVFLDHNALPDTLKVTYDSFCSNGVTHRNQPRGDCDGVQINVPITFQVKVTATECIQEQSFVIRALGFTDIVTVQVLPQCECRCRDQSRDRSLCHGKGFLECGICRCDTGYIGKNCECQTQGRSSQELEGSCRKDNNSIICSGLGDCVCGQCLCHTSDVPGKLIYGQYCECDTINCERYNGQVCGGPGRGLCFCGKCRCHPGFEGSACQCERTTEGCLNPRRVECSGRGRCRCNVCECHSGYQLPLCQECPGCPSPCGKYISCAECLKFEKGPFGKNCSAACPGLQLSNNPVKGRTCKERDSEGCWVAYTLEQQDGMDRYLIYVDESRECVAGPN

Kd: 1000 µM
Substance: LFA-1 (from UniProt P20701)
